“Also recorded” adds a separate entry of the source. Each block holds one molecule with its values, some of them ahead of it. [ ]: non-standard residue; d: D form.
Legend:
human CRP = target: T1, human CRP (Homo sapiens, UniProt P02741); test: Block of the inhibitory effect of human CRP on leptin-stimulated STAT3 phosphorylation in HEK-293 OB-Rb cells; format: cell-based; details: for restoration of leptin-stimulated STAT3 activation in the presence of human CRP: hexamer at concentrations as high as 0.8 μM, human CRP 8 μg/ml, human leptin 2 nM, 1-hour pre-incubation
T1 construct: purchased CHEMICON International
T1 sequence (P02741 19-224): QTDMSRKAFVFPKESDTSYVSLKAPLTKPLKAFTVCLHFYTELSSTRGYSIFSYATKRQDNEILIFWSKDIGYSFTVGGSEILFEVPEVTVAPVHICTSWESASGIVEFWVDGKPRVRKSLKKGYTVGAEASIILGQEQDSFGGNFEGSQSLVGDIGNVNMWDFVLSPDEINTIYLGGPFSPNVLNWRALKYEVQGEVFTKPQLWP
Method: In the in vitro experiment, Peptide-E was pre-incubated with human CRP for 30 minutes before being mixed with human leptin for an additional 45 minutes. The resultant mixture was then added to the HEK-293 cells overexpressing the long form leptin receptors, OB-Rb (FIG. 9). After a 30 minute incubation, the cells were harvested in a protein extraction buffer (Zhao, et al., 1997, PNAS). The signaling of leptin in the cells, measured by its ability to stimulate tyrosine phosphorylation on STAT3 in a western blot assay, was evaluated.
Using a design similar to the in vitro experiment described in Example 5, the hexamer of the '388 patent (SEQ ID NO:3) was pre-incubated with human CRP (8 μg/ml) and human leptin (2 nM) for 1-hour. The resultant mixture was then added to the HEK-293 cells overexpressing the long form leptin receptors, OB-Rb (FIG. 12). After a 30 minute incubation, the cells were harvested in a protein extraction buffer. The signaling of human leptin in the cells, measured by its ability to stimulate tyrosine phosphorylation on STAT3 in a western blot assay, was evaluated.

ob/ob mice = test: Co-infusion of Peptide E with human CRP and leptin into ob/ob mice; format: in vivo, mouse; details: for restoration of leptin effect on body weight / restoration of leptin effect on food-intake: Pep-E 24 or 48 μg/day/mouse with human CRP 48 and leptin 12 μg/day/mouse
Method: FIG. 10. […] Infusion dosages for human CRP and leptin were 48 μg/day/mouse and 12 μg/day/mouse, respectively. The infusion rate for Pep-E (P) was 24 μg/day/mouse (medium dosage, abbreviated “m”) and 48 μg/day/mouse (high dosage, abbreviated “h”). Food-intake (FIGS. 10(A & C)) and body weight (FIGS. 10(B & D)) were monitored daily throughout the infusion. The arrows in A-D indicate the day of surgery. At the end of infusion, blood samples were collected for the measurement of blood-glucose, human CRP, and human leptin. The serum concentrations of human CRP and human leptin were 0.85±0.1 μg/ml and 18 ng±2 ng/ml, respectively. […] The glucose concentration from the mice infused with human CRP and leptin, but NOT with Pep-E was also shown.
In the in vivo experiment, the Peptide E polypeptide was co-infused through mini-osmotic pumps with human CRP and leptin into the ob/ob mice. Food-intake (24 hours) and body weight were followed during the infusion period (FIG. 10A-10D).

[1] = tested on: leptin-induced tyrosine phosphorylation of STAT3; test: Leptin-induced STAT3 tyrosine phosphorylation in HEK293 cells expressing OB-Rb (western blot), human leptin; format: cell-based; details: human leptin 2 nM, protein pre-incubated with leptin, HEK293 OB-Rb cells
Method: (§1) 2. Signaling Studies: A HEK293 cell line stably expressing the human long-form receptor, OB-Rb (M. Friedman-Einat et al., 2003, Regul. Pept. 111, 77) was serum starved for 2-h before addition of leptin and CRP. Leptin (SEQ ID NO:4), in the presence or absence of C-reactive proteins, was pre-incubated in μ-MEM for 30 minutes at 37° C. before applied to the cells. After a 30-incubation with leptin (SEQ ID NO:4), the cells were harvested in a previously described protein lysis buffer. A. Z. Zhao et al., 1997, Proc. Natl. Acad. Sci. U.S.A. 94, 322. The protein extract was subjected to a western blot assay with an anti-phospho-STAT3 specific antibody (Cell Signaling, Beverly, Mass.). For studies involving the primary hypothalamic neurons, the rat hypothalamus was surgically isolated right after euthanasia, and immediately placed in the DMEM for incubation with leptin in the presence or absence of CRP.
(§2) To determine if the interaction between CRP and leptin influences cellular actions of leptin, we assessed the ability of leptin to stimulate tyrosine phosphorylation of STAT3 and PI3-kinase activity in the presence of CRP in vitro.

mouse leptin = mouse leptin (Mus musculus, UniProt P41160); test: Immunoprecipitation of rat CRP with mouse leptin; format: binding; details: leptin and CRP mixture and rat serum
Chain of mouse leptin (P41160 22-167): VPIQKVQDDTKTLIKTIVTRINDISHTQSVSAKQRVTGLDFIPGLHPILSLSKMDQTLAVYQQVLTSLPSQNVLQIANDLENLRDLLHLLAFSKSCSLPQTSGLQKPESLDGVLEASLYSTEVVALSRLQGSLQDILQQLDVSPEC
Method: Direct binding of […] and leptin in an immunoprecipitation assay was determined. Rat CRP was purified from fresh rat serum to >95% employing a previously established affinity-purification protocol. J. Tseng et al., 1988, Mol. Immunol. 25, 679. This purity is very similar to the human CRP preparation obtained from a commercial source (CHEMICON International). The purified human- and rat-CRP proteins were pre-mixed with recombinant human and mouse leptin, respectively, before addition of specific antibodies against human- and mouse-leptin. The concentrations of CRP and leptin in the precipitation reaction were all within the physiological ranges (M. B. Schulze et al., 2004, Diabetes Care 27, 889; T. Kazumi et al., 2003, Metabolism 52, 1113).
In parallel experiments, recombinant leptin was also pre-mixed with human- or rat serum to allow for potential direct interactions prior to immunoprecipitation. The precipitation pellets obtained were subjected to western blot assays with specific anti-CRP antibodies. […] Because of the similarities between rat CRP and human CRP in the binding to leptin and of our main interest in the relevance to human obesity, focus was placed on potential functional effects of human CRP in the subsequent experiments.

[2] = tested on: mouse leptin-induced STAT3 activation; test: Leptin-induced STAT3 tyrosine phosphorylation in HEK293 cells expressing OB-Rb, mouse leptin; format: cell-based; details: murine leptin 2 nM
Method: as §1, §2

[3] = tested on: insulin-stimulated PI3-kinase; test: Insulin-stimulated PI3-kinase activity in differentiated 3T3-L1 adipocytes (specificity control); format: cell-based

Molecule: NH2—W—P—L—H—C—S—COOH (H-[dW][dP][dL][dH][dC][dS]-OH; SMILES CC(C)C[C@@H](NC(=O)[C@H]1CCCN1C(=O)[C@H](N)Cc1c[nH]c2ccccc12)C(=O)N[C@H](Cc1c[nH]cn1)C(=O)N[C@H](CS)C(=O)N[C@H](CO)C(=O)O; listed as Homo sapiens) [SEQ ID NO:5, D-form hex-peptide reported by Grasso, et al]
restoration of leptin-stimulated STAT3 activation in the presence of human CRP (human CRP): failed to restore leptin-stimulated STAT3 activation

Molecule: Peptide E: chemically synthesized polypeptide of 27 amino acids representing a segment of human leptin (SEQ ID NO:2) (LAFSKSCHLPWASGLETLDSLGGVLEA; listed as Homo sapiens)
restoration of leptin effect on body weight (ob/ob mice): could restore both of these functions of human leptin | restoration of leptin effect on food-intake (ob/ob mice): could restore both of these functions of human leptin | restoration of leptin effect on body weight (ob/ob mice; listed as Peptide-E): restored the physiological effects of human leptin | restoration of leptin effect on food-intake (ob/ob mice; listed as Peptide-E): restored the physiological effects of human leptin | restoration of leptin effect on blood glucose (ob/ob mice; end of infusion, high dosage of Pep-E 48 μg/day/mouse with human CRP and leptin): could restore the beneficial effect of human leptin on blood glucose | STAT phosphorylation by the peptide itself (human CRP; Peptide-E by itself): did not induce any changes in STAT phosphorylation

Molecule: NH2-S-C-H-L-P-W-COOH (H-SCHLPW-OH; listed as Homo sapiens) [SEQ ID NO:3, 6 amino acid polypeptide reported in U.S. Pat. No. 6,777,388 to Grasso, et al]
restoration of leptin-stimulated STAT3 activation in the presence of human CRP (human CRP): unable to block the negative effect of human CRP on the signaling capability of human leptin; also recorded: failed to restore leptin-stimulated STAT3 activation

Molecule: human serum amyloid P-component (SAP): human serum amyloid P-component, control protein [reference compound]
effect on leptin-induced tyrosine phosphorylation of STAT3 [1]: did not significantly alter leptin-stimulated phosphorylation of STAT3

direct binding to mouse leptin (immunoprecipitation with anti mouse-leptin, anti-CRP western blot) (mouse leptin): could also bring down rat CRP
B1: rat CRP: rat C-reactive protein purified from fresh rat serum to >95% (protein)
chain: HEDMSKQAFVFPGVSATAYVSLEAESKKPLEAFTVCLYAHADVSRSFSIFSYATKTSFNEILLFWTRGQGFSIAVGGPEILFSASEIPEVPTHICATWESATGIVELWLDGKPRVRKSLQKGYIVGTNASIILGQEQDSYGGGFDANQSLVGDIGDVNMWDFVLSPEQINAVYVGRVFSPNVLNWRALKYETHGDVFIKPQLWPLTDCCES
effect on mouse leptin-induced STAT3 phosphorylation [2]: attenuate the tyrosine-phosphorylation of STAT3; also recorded: higher concentrations of rat- than human-CRP are required to achieve the equivalent effects; also recorded: Attenuating effects | effect on insulin-stimulated PI3-kinase activity [3]: did not block insulin-stimulated PI3-kinase

Source: patent publication US7629315B2, “Compositions for blocking the inhibitory effect of human CRP on human leptin” (University of Pittsburgh of the Commonwealth System of …, priority 2005, dated 2009)
